According to patent US20200354451A1:

Biological target: human CD19 (human) (UniProt P15391)
Test: cell-based or functional assay

UniProt P15391, sequence (P15391 20-556): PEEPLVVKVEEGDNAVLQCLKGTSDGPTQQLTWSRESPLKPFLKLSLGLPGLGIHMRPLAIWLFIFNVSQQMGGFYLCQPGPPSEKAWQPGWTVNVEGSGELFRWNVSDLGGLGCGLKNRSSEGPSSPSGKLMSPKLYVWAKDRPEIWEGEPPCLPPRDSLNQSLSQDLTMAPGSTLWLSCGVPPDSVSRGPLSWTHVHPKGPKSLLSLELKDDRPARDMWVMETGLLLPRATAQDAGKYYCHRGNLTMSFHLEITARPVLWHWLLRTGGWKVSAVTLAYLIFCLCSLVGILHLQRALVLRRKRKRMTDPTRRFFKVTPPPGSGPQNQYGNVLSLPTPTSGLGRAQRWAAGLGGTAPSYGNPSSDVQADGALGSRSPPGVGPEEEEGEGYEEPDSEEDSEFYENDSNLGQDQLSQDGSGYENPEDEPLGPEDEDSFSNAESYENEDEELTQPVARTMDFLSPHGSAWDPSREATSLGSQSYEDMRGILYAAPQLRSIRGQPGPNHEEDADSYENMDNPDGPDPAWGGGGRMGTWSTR

Work on CD19 CAR (mouse FMC63 scFv, no TF) yielded an IFN-gamma secretion (ELISA), Hela-CD19 target cells of 8870 pg/mL.
